# Source: paper PMC4057782, “tRNA synthetase counteracts c-Myc to develop functional vasculature”
# Columns and labels:
# [1] = target: SerRS delta V2-G14 (Homo sapiens, UniProt P49591 1-514, del2-14); experiment: EMSA; binding abolished; EMSA: 20 mM Tris-HCl pH 8.0, 60 mM KCl, 5 mM MgCl2, 0.1 mg/ml BSA, 10 ng/ul poly(dG-dC), 1 mM DTT, 30 min, room temperature; SPR: 10 mM HEPES pH 7.4, 150 mM NaCl, 0.005% P-20; footprint: 20 mM HEPES pH 7.9, 120 mM KCl, 8 mM MgCl2, 0.2 mM EDTA, 0.5 mM DTT, 0.2 mg/ml BSA, 10 ug/ml poly(dG-dC), 5% glycerol, room temperature; details: protein: recombinant; chain copies: 2; label: 5' 32P
# [2] = target: SerRS delta T413-V420 (Homo sapiens, UniProt P49591 1-514, del413-420); experiment: as above; details: protein: recombinant; chain copies: 2; label: 5' 32P
# Sequence of SerRS delta T413-V420 (P49591 other isoform, or with tags, fused parts or gaps del413-420 | mutant): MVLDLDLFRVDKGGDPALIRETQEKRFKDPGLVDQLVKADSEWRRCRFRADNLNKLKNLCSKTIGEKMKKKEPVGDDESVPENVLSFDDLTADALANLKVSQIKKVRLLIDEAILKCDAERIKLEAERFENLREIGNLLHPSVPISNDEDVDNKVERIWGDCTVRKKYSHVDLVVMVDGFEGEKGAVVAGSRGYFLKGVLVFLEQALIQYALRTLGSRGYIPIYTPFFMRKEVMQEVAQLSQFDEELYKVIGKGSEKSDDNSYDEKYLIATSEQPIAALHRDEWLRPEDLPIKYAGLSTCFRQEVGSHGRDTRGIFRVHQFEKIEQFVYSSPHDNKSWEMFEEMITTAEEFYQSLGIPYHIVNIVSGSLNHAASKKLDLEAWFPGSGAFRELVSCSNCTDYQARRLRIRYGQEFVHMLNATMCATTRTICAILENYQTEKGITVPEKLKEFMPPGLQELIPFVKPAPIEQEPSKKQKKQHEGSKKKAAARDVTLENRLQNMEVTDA
# Sequence of SerRS delta V2-G14 (P49591 other isoform, or with tags, fused parts or gaps del2-14 | mutant): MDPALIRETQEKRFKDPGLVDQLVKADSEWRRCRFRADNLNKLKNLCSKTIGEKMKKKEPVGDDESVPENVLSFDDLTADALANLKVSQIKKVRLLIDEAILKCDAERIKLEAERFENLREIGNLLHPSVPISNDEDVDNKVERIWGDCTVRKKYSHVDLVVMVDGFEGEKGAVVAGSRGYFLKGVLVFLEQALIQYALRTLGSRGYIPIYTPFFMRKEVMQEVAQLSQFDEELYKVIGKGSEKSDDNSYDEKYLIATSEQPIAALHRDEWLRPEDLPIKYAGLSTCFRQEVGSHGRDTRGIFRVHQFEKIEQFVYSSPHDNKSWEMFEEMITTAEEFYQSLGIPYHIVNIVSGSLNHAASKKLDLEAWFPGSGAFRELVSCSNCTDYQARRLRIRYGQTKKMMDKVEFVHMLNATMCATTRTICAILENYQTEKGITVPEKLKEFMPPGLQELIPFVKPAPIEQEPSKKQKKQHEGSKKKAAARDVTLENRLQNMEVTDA
binder,measurement,setting,value
VEGFA promoter 27-bp (-62 to -36) (dsDNA) DNA 1: GGCGGGGCGGAGCCATGCGCCCCCCCC DNA 2: GGGGGGGGCGCATGGCTCCGCCCCGCC,binding result,[1],no binding
same,binding result,[2],no binding
